Assay [1] has as its target T1, Histone 2A citrulline-containing peptide 5 (human, also: biotin label).
T1 peptide: VGRVH[Cit]LLRKGN
Briefly: peptide ELISA, 0.08 ug/well. The method, then:
(§1) Biotin and citrulline-containing peptides derived from histone 2A were immobilized on NEUTRAVIDIN®-coated 96-well ELISA plates (0.3 μg/well). CFC-1 and CFC-0 were coated at the same concentration and served as positive and negative controls respectively for specific anti-citrulline reactivity and as coating controls. Non-coated wells were used to test for aspecific binding of the antibodies. […] Detection of bound anti-citrulline antibodies was performed by incubating the wells with rabbit-anti-human-HRP (1:2000) for one hour at RT followed by incubation with TMB substrate. The resulting OD (y-axis) is a measure for antibody binding.
(§2) Ninety-six-well ELISA plates were coated with NEUTRAVIDIN® (0.1 μg/well) by overnight incubation at 4° C. Wells were washed five times with PBS-TWEEN®-20 (PBS-T) and blocked by a one-hour incubation with PBS-T+1% Bovine serum albumin (BSA) at room temperature (RT). After five more washes with PBS-T, wells were incubated for one hour at RT with histone-derived citrulline and biotin-containing peptides (0.3 μg/well). […] Wells were washed five times with PBS-T and incubated with rabbit-anti-human-HRP (1:2000) for one hour at RT followed by five washes with PBS-T and three wash steps with PBS. Wells were incubated for five minutes with TMB substrate before stopping the reaction with 2 M H₂SO₄. Optical density was measured by 450 nm and is a measure for the affinity of the antibodies used.

Assay [2] deals with T2, Histone 2A citrulline-containing peptide 6 (human, also: biotin label).
T2 peptide: VHRLL[Cit]KGNYSE
Briefly: peptide ELISA, 0.08 ug/well. The method, then:
as §1, §2
Background: An ELISA detects its analyte on a solid surface through an enzyme-linked reagent.

Assay [3] concerns the target T3, Histone 2A citrulline-containing peptide 9 (human, also: biotin label).
T3 peptide: DNKKT[Cit]IIPRHL
In words: peptide ELISA, 0.08 ug/well. The protocol:
as §1, §2

Assay [4] concerns the target T4, Histone 2A citrulline-containing peptide 3 (human, also: biotin label).
T4 peptide: KSRSS[Cit]AGLQFP
In words: peptide ELISA, 0.08 ug/well. The method, then:
as §1, §2

The target in assay [5] is T5, Histone 2A citrulline-containing peptide 1 (human, also: biotin label).
T5 construct: also called AAASGXGKQGGK
T5 peptide: AAASG[Cit]GKQGGK
Briefly: peptide ELISA, 0.08 ug/well. The protocol:
as §1, §2

The target of assay [6] is T6, CFC-1.
T6 construct: Positive control for anti-citrulline reactivity; also called cfc1 XG
Briefly: peptide ELISA, 0.08 ug/well. The method, then:
as §1, §2

Assay [7] concerns the target T7, Histone 2A citrulline-containing peptide 12 (human, also: biotin label).
T7 peptide: NKLLG[Cit]VTIAQG
In words: peptide ELISA, 0.08 ug/well. The method, then: as §1, §2

Assay [8] deals with T8, Histone 2A citrulline-containing peptide 11 (human, also: biotin label).
T8 peptide: LQLAI[Cit]NDEELN
In words: peptide ELISA, 0.08 ug/well. The method, then:
as §1, §2

Assay [9] has as its target T9, Histone 2A citrulline-containing peptide 2 (human, also: biotin label).
T9 peptide: AKAKS[Cit]SSRAGL
In words: peptide ELISA, 0.08 ug/well. The protocol: as §1, §2

Assay [10] deals with T10, Histone 2A citrulline-containing peptide 4 (human, also: biotin label).
T10 peptide: QFPVG[Cit]VHRLLR
In words: peptide ELISA, 0.08 ug/well. The protocol:
as §1, §2

Assay [11] deals with T11, Histone 2A citrulline-containing peptide 8 (human, also: biotin label).
T11 peptide: AGNAA[Cit]DNKKTR
Briefly: peptide ELISA, 0.08 ug/well. The method, then:
as §1, §2

Assay [12] deals with T12, huPAD2 deiminated human recombinant histone H3 (human).
T12 construct: also called H3/p2
In words: ELISA, 0.0032 ug/well. The protocol:
as §1, with “Deiminated, as well as non-deiminated histones,” for “Biotin and citrulline-containing peptides derived from histone 2A”, “on” for “on NEUTRAVIDIN®-coated”, “controls, respectively,” for “controls respectively”, “binding. H1=recombinant histone 1; H1/p2=huPAD2 recombinant histone 1; H1/p4=huPAD4 recombinant histone 1 and so forth (x-axis).” for “binding.”

For assay [13], the target named is T13, human recombinant histone H4 (human, UniProt P62805 2-103). In words: ELISA, 0.0032 ug/well. The protocol:
as §1, with “Deiminated, as well as non-deiminated histones,” for “Biotin and citrulline-containing peptides derived from histone 2A”, “on” for “on NEUTRAVIDIN®-coated”, “controls, respectively,” for “controls respectively”, “binding. H1=recombinant histone 1; H1/p2=huPAD2 recombinant histone 1; H1/p4=huPAD4 recombinant histone 1 and so forth (x-axis).” for “binding.”

Assay [14] has as its target T14, human recombinant histone H2B (human).
T14 construct: Non-deiminated
Briefly: ELISA, 0.0032 ug/well. The protocol:
as §1, with “Deiminated, as well as non-deiminated histones,” for “Biotin and citrulline-containing peptides derived from histone 2A”, “on” for “on NEUTRAVIDIN®-coated”, “controls, respectively,” for “controls respectively”, “binding. H1=recombinant histone 1; H1/p2=huPAD2 recombinant histone 1; H1/p4=huPAD4 recombinant histone 1 and so forth (x-axis).” for “binding.”

For assay [15], the target named is T15, huPAD4 deiminated human recombinant histone H2B (human).
T15 construct: also called H2B/p4
Briefly: ELISA, 0.0032 ug/well. The method, then: as §1, with “Deiminated, as well as non-deiminated histones,” for “Biotin and citrulline-containing peptides derived from histone 2A”, “on” for “on NEUTRAVIDIN®-coated”, “controls, respectively,” for “controls respectively”, “binding. H1=recombinant histone 1; H1/p2=huPAD2 recombinant histone 1; H1/p4=huPAD4 recombinant histone 1 and so forth (x-axis).” for “binding.”

Assay [16] deals with T6, CFC-1. Briefly: ELISA, 0.0032 ug/well. The protocol:
as §1, with “Deiminated, as well as non-deiminated histones,” for “Biotin and citrulline-containing peptides derived from histone 2A”, “on” for “on NEUTRAVIDIN®-coated”, “controls, respectively,” for “controls respectively”, “binding. H1=recombinant histone 1; H1/p2=huPAD2 recombinant histone 1; H1/p4=huPAD4 recombinant histone 1 and so forth (x-axis).” for “binding.”

For assay [17], the target named is T16, huPAD4 deiminated human recombinant histone H3 (human).
T16 construct: also called H3/p4
Briefly: ELISA, 0.0032 ug/well. The protocol: as §1, with “Deiminated, as well as non-deiminated histones,” for “Biotin and citrulline-containing peptides derived from histone 2A”, “on” for “on NEUTRAVIDIN®-coated”, “controls, respectively,” for “controls respectively”, “binding. H1=recombinant histone 1; H1/p2=huPAD2 recombinant histone 1; H1/p4=huPAD4 recombinant histone 1 and so forth (x-axis).” for “binding.”

The target in assay [18] is T17, huPAD4 deiminated human recombinant histone H2A (human).
T17 construct: also called H2A/p4; huPAD4 deiminated histone 2A
In words: ELISA, 0.0032 ug/well. The method, then:
as §1, with “Deiminated, as well as non-deiminated histones,” for “Biotin and citrulline-containing peptides derived from histone 2A”, “on” for “on NEUTRAVIDIN®-coated”, “controls, respectively,” for “controls respectively”, “binding. H1=recombinant histone 1; H1/p2=huPAD2 recombinant histone 1; H1/p4=huPAD4 recombinant histone 1 and so forth (x-axis).” for “binding.”

In assay [19] the target is T18, huPAD2 deiminated human recombinant histone H2A (human).
T18 construct: also called H2A/p2
In words: ELISA, 0.0032 ug/well. The method, then: as §1, with “Deiminated, as well as non-deiminated histones,” for “Biotin and citrulline-containing peptides derived from histone 2A”, “on” for “on NEUTRAVIDIN®-coated”, “controls, respectively,” for “controls respectively”, “binding. H1=recombinant histone 1; H1/p2=huPAD2 recombinant histone 1; H1/p4=huPAD4 recombinant histone 1 and so forth (x-axis).” for “binding.”

Assay [20] has as its target T19, huPAD2 deiminated human recombinant histone H2B (human).
T19 construct: also called H2B/p2
Briefly: ELISA, 0.0032 ug/well. The protocol:
as §1, with “Deiminated, as well as non-deiminated histones,” for “Biotin and citrulline-containing peptides derived from histone 2A”, “on” for “on NEUTRAVIDIN®-coated”, “controls, respectively,” for “controls respectively”, “binding. H1=recombinant histone 1; H1/p2=huPAD2 recombinant histone 1; H1/p4=huPAD4 recombinant histone 1 and so forth (x-axis).” for “binding.”

Assay [21] has as its target T12, huPAD2 deiminated human recombinant …. In words: ELISA, 0.08 ug/well. The protocol:
(§3) CFC-1 and CFC-0 were coated at the same concentration and served as positive and negative controls, respectively, for specific anti-citrulline reactivity and as coating controls. Non-coated wells were used to test for aspecific binding of the antibodies. […] Detection of bound anti-citrulline antibodies was performed by incubating the wells with rabbit-anti-human-HRP (1:2000) for one hour at RT followed by incubation with TMB substrate. The resulting OD (y-axis) is a measure for antibody binding. H1=recombinant histone 1; H1/p2=huPAD2 recombinant histone 1; H1/p4=huPAD4 recombinant histone 1 and so forth (x-axis).

Assay [22] addresses T13, human recombinant histone H4. In words: ELISA, 0.08 ug/well. The protocol: as §3

Here are results for one molecule from US20170298146A1 (MODIQUEST B V, published 2017).

Non-standard residues stand in square brackets, D forms with d. No end group written: not given here. Cit = NC(=O)NCCC[C@H](N)C(=O)O

B1: RhmAb2.102 (antibody, human IgG1, lambda)
heavy: not shown
light: QSVLTQPPSMSAAPGQKVTISCSGSSSNIGNNYVSWYQQVPGTAPKLLIYDDNKRPSGIPGRFSGSKSATSATLGITGLQAGDEADYYCGSWDDNLSVVLFGGGTKLTVLGQPKAAPSVTLFPPSSEELQANKATLVCLISDFYPGAVTVAWKADSSPVKAGVETTTPSKQSNNKYAASSYLSLTPEQWKSHRSYSCQVTHEGSTVEKTVAPTECS
notes: Human IgG1 lambda; also called Rhm2.102
For B1, the OD was 0.066 OD in [1]; 0.123 OD in [2]; 0.06 OD in [3]; 0.091 OD in assay [4]; 2.04 OD in assay [5]; 2.66 OD in [6]. The OD amounted to 0.06 OD in assay [7]; 0.064 OD in [8]; 0.086 OD in assay [9]; 0.192 OD in assay [10]; 0.06 OD in assay [11]; 0.08 OD in assay [12]. Besides, the OD in [13] turned out to be 0.06 OD; in [14] it was 0.05 OD; in assay [15], 0.052 OD; in assay [16] it was 0.178 OD; in assay [17] it was 0.065 OD; in assay [18] it was 0.135 OD. The OD in assay [19] was determined as 0.161 OD; in assay [20] it was 0.052 OD; in assay [21], 0.493 OD; in assay [22] it was 0.067 OD.
